This note sets out measurements from PMC8188212, “Multi‐Arm PEG/Peptidomimetic Conjugate Inhibitors of DR6/APP Interaction Block Hematogenous Tumor Cell Extravasation” (Advanced Science, 2021).

Data set [1] is described as follows: Biodistribution, ex vivo fluorescence imaging of organs. The data set is classed as in vivo. Conditions: Cy7-labeled peptides, intravenous, mice. Here is the method:
To quantify the biodistribution, mice were intravenously injected with Cy7‐labeled peptides. Mice were sacrificed at 6, 12, and 24 h after injection. All organs were harvested and subjected to ex vivo fluorescence imaging.

The target in another data set is hERG potassium channel (Homo sapiens, UniProt Q12809). The data set can be described thus: Whole-cell patch clamp recording of hERG current. In kind it is cell-based. Particulars: cisapride as positive control. How it is done:
In addition, some common adverse effects suffered by frequently used medications were also evaluated. The whole‐cell patch clamp recording technique was used to record the whole‐cell hERG‐potassium to measure the cardiac toxicity of peptidomimetic agents on hERG potassium channel by utilizing cisapride as positive control (Figure 6E; Figure S10, Supporting Information). […] Meanwhile, the blood biochemical indexes of ligand‐treated mice sacrificed on day 2 or day 15 were tested to examine the influences of peptidomimetic agents to liver and kidney (Figure S11, Supporting Information).
(In patch-clamp work, channel activity is measured electrically.)

Square brackets hold non-standard residues; d marks the D form. Side chains are listed from the residue outwards. Ends that are not written are not given here. maleimide = maleimide: 4-arm PEG5k maleimide reacting with the C-terminal Cys thiol

Sequence of hERG potassium channel (Q12809 whole entry): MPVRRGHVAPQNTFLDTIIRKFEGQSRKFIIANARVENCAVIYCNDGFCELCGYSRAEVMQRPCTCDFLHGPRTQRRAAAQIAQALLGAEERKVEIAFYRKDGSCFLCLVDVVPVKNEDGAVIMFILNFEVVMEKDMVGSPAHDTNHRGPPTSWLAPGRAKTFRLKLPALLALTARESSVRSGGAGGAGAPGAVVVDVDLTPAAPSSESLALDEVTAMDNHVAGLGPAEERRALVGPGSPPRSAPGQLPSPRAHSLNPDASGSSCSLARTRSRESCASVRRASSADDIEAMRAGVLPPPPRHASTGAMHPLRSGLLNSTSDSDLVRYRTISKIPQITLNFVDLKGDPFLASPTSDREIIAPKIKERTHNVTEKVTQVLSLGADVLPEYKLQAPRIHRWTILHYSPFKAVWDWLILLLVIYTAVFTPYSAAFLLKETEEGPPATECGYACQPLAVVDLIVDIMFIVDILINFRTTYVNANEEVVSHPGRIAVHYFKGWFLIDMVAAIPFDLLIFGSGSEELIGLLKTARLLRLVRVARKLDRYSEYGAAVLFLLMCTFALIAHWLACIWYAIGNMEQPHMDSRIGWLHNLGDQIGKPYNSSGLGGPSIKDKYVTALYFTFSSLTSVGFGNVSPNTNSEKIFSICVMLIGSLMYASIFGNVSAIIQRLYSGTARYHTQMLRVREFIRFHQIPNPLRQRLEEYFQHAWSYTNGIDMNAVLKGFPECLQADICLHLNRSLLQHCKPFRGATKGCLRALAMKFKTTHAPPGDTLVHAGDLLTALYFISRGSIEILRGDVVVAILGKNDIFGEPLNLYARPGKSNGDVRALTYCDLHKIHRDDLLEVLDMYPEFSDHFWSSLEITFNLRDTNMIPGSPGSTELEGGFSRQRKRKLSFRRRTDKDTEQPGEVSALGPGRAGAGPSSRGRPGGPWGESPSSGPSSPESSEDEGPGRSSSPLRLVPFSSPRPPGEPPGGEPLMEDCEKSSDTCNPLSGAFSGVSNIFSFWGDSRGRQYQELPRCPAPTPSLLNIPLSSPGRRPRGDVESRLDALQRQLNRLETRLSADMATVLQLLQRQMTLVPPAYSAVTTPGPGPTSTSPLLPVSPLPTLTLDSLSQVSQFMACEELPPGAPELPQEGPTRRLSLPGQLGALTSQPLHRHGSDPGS

For “PEG-tAHP-DRI: tetra-(D-retro-inverso isomer of AHP-12) substitued 4-arm PEG5k ([dP][dT][dT][dA][dD][dI][dT]C([maleimide-4‑arm PEG5k]); also: four peptides on one 4-arm PEG5k)”, in data set [1], the “distribution in kidney and liver after 12 h” value was “much higher distribution in kidney and liver”; the “distribution intensity within 6 h, compared with AHP-DRI-12” value is “much lower distribution intensity”; the “organ accumulation within 6 h after injection” value is “accumulate mostly in kidney and slightly in liver”. Besides, in the data set with hERG potassium channel, the “inhibitory effect on hERG channels” value is “no significant inhibitory effect”.
